Patent US20170233497A1 (Genmab, published 2017)
Substitutions are numbered along the chain they refer to. Numbers in names are those of the source.

Experiments:
[1] = target: the molecule itself; test: native mass spectrometry; monomer-dimer equilibrium of the hinge-less CH2-CH3 fragment (homodimer)
Experimental: (§1) To measure the effect of the above mentioned CH3 mutations on the strength of the CH3-CH3 interaction, fragments composed of only the CH2-CH3 domains were made. The lack of a hinge region in these fragments prevented covalent inter-heavy chain disulfide bonds. The fragments were analyzed by native mass spectrometry. Samples were buffer-exchanged to 100 mM ammonium acetate pH 7, using 10 kDa MWCO spin-filter columns. Aliquots (˜1 μL) of serial diluted samples (20 μM-25 nM; monomer equivalent) were loaded into gold-plated borosilicate capillaries for analysis on a LCT mass spectrometer (Waters). The monomer signal, Mₛ, was defined as the area of the monomer peaks as a fraction of the area of all peaks in the spectrum (Mₛ/(Mₛ+Dₛ) where Dₛ=the dimer signal). The concentration of monomer at equilibrium, [M]eq, was defined as Mₛ·[M]₀ where [M]₀ is the overall protein concentration in terms of monomer. The dimer concentration at equilibrium, [D]eq, was defined as ([M]₀−[M]eq)/2. The KD, was then extracted from the gradient of a plot of [D]eq versus [M]eq².

[2] = target: the molecule itself; test: native mass spectrometry; KD compared to the wild type IgG1 CH2-CH3 fragment
Experimental: as §1

[3] = target: the molecule itself; test: native mass spectrometry; CH2-CH3 fragment homodimer
Experimental: as §1, with “The” for “To measure the effect of the above mentioned CH3 mutations on the strength of the CH3-CH3 interaction, fragments composed of only the CH2-CH3 domains were made. The lack of a hinge region in these fragments prevented covalent inter-heavy chain disulfide bonds. The”
It is described in Example 21 that there is a specific range in the strength of the interaction of the CH3-CH3 homodimers that allows efficient Fab-arm-exchange. The strength of the interactions at the CH3 interface should be such that it is possible that both heavy chains in the parental antibodies (homodimers) dissociate in the Fab-arm-exchange reaction and that they subsequently associate in the heterodimerization reaction. To generate a stable heterodimer, the strength of the heterodimer interaction should be greater than the strength of the homodimer interaction, such that it favors heterodimerization over homodimerization. To confirm this, the strength of the CH3-CH3 interaction in the heterodimers was measured and compared to the strength in the homodimers. The KD of the CH2-CH3 fragments derived from IgG1-K409R, IgG1-F405L and IgG1-ITL homodimers were measured as described in Example 21. For the determination of the KD in heterodimers, CH2-CH3 domain fragments (G1-F405L and G1-ITL) were mixed with the IgG1Δhinge fragment of IgG1-7D8-K409R, which contain all antibody domains except the hinge. […] The fragments were mixed and analyzed after 24 hours by native mass spectrometry as described in Example 21. […]

[4] = target: the molecule itself; test: native mass spectrometry; KD compared to the wild type IgG4 CH2-CH3 fragment
Experimental: as §1

B1: CH2-CH3 fragment of human IgG1 with K409R (other, UniProt P01857-1 224-330, looked up, name in EU numbering)
chain: GQPREPQVYTLPPSRDELTKNQVSLTCLVKGFYPSDIAVEWESNGQPENNYKTTPPVLDSDGSFFLYSRLTVDKSRWQQGNVFSCSVMHEALHNHYTQKSLSLSPGK
notes: range 341-447; As m1, with the mutation; also called G1-K409R; not shown: N-terminal 6 amino acid His tag
For B1, the Kd [1] was 110 nM, the fold-difference [2] was 0.03 fold and the Kd [3] was 110 nM.

B2: CH2-CH3 fragment of human IgG1 with T350I (other, UniProt P01857-1 224-330, looked up, name in EU numbering)
chain: B1 chain with T10I, R69K
notes: range 341-447; As m1, with the mutation; also called G1-T350I; not shown: N-terminal 6 amino acid His tag
Work on B2 yielded a Kd [1] of 7 nM and a fold-difference [2] of 0.4 fold.

B3: CH2-CH3 fragment of human IgG4 with R409M (other, UniProt P01861-1 221-327, looked up, name in EU numbering)
chain: B1 chain with R15Q, D16E, L18M, R69M, Q79E, P105L
notes: range 341-447; As m7, with the mutation; also called G4-R409M; not shown: N-terminal 6 amino acid His tag
For B3, the Kd [1] was 3 nM and the fold-difference [4] was 16 fold.

B4: CH2-CH3 fragment of human IgG4 with K370Q (other, UniProt P01861-1 221-327, looked up, name in EU numbering)
chain: B1 chain with R15Q, D16E, L18M, K30Q, Q79E, P105L
notes: range 341-447; As m7, with the mutation; also called G4-K370Q; not shown: N-terminal 6 amino acid His tag
B4 was tested, and the Kd [1] was 11 nM and the fold-difference [4] was 4.3 fold.

B5: CH2-CH3 fragment of human IgG4 with K370E (other, UniProt P01861-1 221-327, looked up, name in EU numbering)
chain: B1 chain with R15Q, D16E, L18M, K30E, Q79E, P105L
notes: range 341-447; As m7, with the mutation; also called G4-K370E; not shown: N-terminal 6 amino acid His tag
B5 showed a Kd [1] of 2 nM and a fold-difference [4] of 24 fold.

B6: CH2-CH3 fragment of human IgG4 with R409A (other, UniProt P01861-1 221-327, looked up, name in EU numbering)
chain: B1 chain with R15Q, D16E, L18M, R69A, Q79E, P105L
notes: range 341-447; As m7, with the mutation; also called G4-R409A; not shown: N-terminal 6 amino acid His tag
B6 gave a Kd [1] of 160 nM and a fold-difference [4] of 0.3 fold.

B7: CH2-CH3 fragment of human IgG4 with R409W (other, UniProt P01861-1 221-327, looked up, name in EU numbering)
chain: B1 chain with R15Q, D16E, L18M, R69W, Q79E, P105L
notes: range 341-447; As m7, with the mutation; also called G4-R409W; not shown: N-terminal 6 amino acid His tag
Work on B7 yielded a Kd [1] of 34000 nM and a fold-difference [4] of 0.0014 fold.

B8: CH2-CH3 fragment of human IgG4 with R409K (other, UniProt P01861-1 221-327, looked up, name in EU numbering)
chain: B1 chain with R15Q, D16E, L18M, R69K, Q79E, P105L
notes: range 341-447; As m7, with the mutation; also called G4-R409K; not shown: N-terminal 6 amino acid His tag
With B8 the Kd [1] was 8 nM and the fold-difference [4] was 6 fold.

B9: CH2-CH3 fragment of human IgG4 with L351K (other, UniProt P01861-1 221-327, looked up, name in EU numbering)
chain: B1 chain with L11K, R15Q, D16E, L18M, Q79E, P105L
notes: range 341-447; As m7, with the mutation; also called G4-L351K; not shown: N-terminal 6 amino acid His tag
For B9, the Kd [1] was 740 nM and the fold-difference [4] was 0.06 fold.

B10: CH2-CH3 fragment of human IgG1 with K370T (other, UniProt P01857-1 224-330, looked up, name in EU numbering)
chain: B1 chain with K30T, R69K
notes: range 341-447; As m1, with the mutation; also called G1-K370T; not shown: N-terminal 6 amino acid His tag
In the case of B10, the Kd [1] is reported as 45 nM and the fold-difference [2] is reported as 0.07 fold.

B11: CH2-CH3 fragment of wild type human IgG4 (other, UniProt P01861-1 221-327, looked up)
chain: B1 chain with R15Q, D16E, L18M, Q79E, P105L
notes: range 341-447; His-tagged fragment without hinge; the KD is its non-covalent self-association (CH3-CH3 homodimer); not shown: N-terminal 6 amino acid His tag
B11 was tested, and the Kd [1] was 48 nM and the fold-difference [4] was 1 fold.

B12: CH2-CH3 fragment of human IgG1 with F405L (other, UniProt P01857-1 224-330, looked up, name in EU numbering)
chain: B1 chain with F65L, R69K
notes: range 341-447; As m1, with the mutation; also called G1-F405L; not shown: N-terminal 6 amino acid His tag
B12 was tested, and the Kd [3] was 850 nM.

B13: CH2-CH3 fragment of human IgG4 with R409T (other, UniProt P01861-1 221-327, looked up, name in EU numbering)
chain: B1 chain with R15Q, D16E, L18M, R69T, Q79E, P105L
notes: range 341-447; As m7, with the mutation; also called G4-R409T; not shown: N-terminal 6 amino acid His tag
B13 gave a Kd [1] of 720 nM and a fold-difference [4] of 0.07 fold.

B14: CH2-CH3 fragment of human IgG4 with F405L (other, UniProt P01861-1 221-327, looked up, name in EU numbering)
chain: B1 chain with R15Q, D16E, L18M, F65L, Q79E, P105L
notes: range 341-447; As m7, with the mutation; also called G4-F405L; not shown: N-terminal 6 amino acid His tag
Protein B14 has a Kd [1] of 25000 nM and a fold-difference [4] of 0.0019 fold.

B15: CH2-CH3 fragment of human IgG4 with S364D (other, UniProt P01861-1 221-327, looked up, name in EU numbering)
chain: B1 chain with R15Q, D16E, L18M, S24D, Q79E, P105L
notes: range 341-447; As m7, with the mutation; also called G4-S364D; not shown: N-terminal 6 amino acid His tag
With B15 the Kd [1] was 47 nM and the fold-difference [4] was 1.02 fold.

B16: CH2-CH3 fragment of human IgG4 with E357T (other, UniProt P01861-1 221-327, looked up, name in EU numbering)
chain: B1 chain with R15Q, D16E, E17T, L18M, Q79E, P105L
notes: range 341-447; As m7, with the mutation; also called G4-E357T; not shown: N-terminal 6 amino acid His tag
B16 gave a Kd [1] of 41000 nM and a fold-difference [4] of 0.0012 fold.

B17: CH2-CH3 fragment of human IgG4 with R409L (other, UniProt P01861-1 221-327, looked up, name in EU numbering)
chain: B1 chain with R15Q, D16E, L18M, R69L, Q79E, P105L
notes: range 341-447; As m7, with the mutation; also called G4-R409L; not shown: N-terminal 6 amino acid His tag
Work on B17 yielded a Kd [1] of 15 nM and a fold-difference [4] of 3.2 fold.

B18: CH2-CH3 fragment of human IgG4 with F405A (other, UniProt P01861-1 221-327, looked up, name in EU numbering)
chain: B1 chain with R15Q, D16E, L18M, F65A, Q79E, P105L
notes: range 341-447; As m7, with the mutation; also called G4-F405A; not shown: N-terminal 6 amino acid His tag
B18 gave a Kd [1] of 19000 nM and a fold-difference [4] of 0.0025 fold.

B19: CH2-CH3 fragment of human IgG1 with T350I-K370T-F405L (other, UniProt P01857-1 224-330, looked up, name in EU numbering)
chain: B1 chain with T10I, K30T, F65L, R69K
notes: range 341-447; also called G1-ITL; not shown: N-terminal 6 amino acid His tag
With B19 the Kd [1] was 1000 nM, the fold-difference [2] was 0.003 fold and the Kd [3] was 1200 nM.
